Results as given in the supplement of paper PMC10567573.

B1: RHOBTB3 (parent)
chain: KVVEAHKIVLCAVSHVFMLLFNVK

Variants of: B1
Assay: protein stability index of a GFP-peptide fusion (GPS, HEK-293T) (PSI 1-6); higher = more stable
Conditions: c terminus: a fixed tail appended
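Further: lentivirally expressed fusions sorted by FACS into six bins by GFP to DsRed ratio, PSI derived from sequencing read proportions per bin multiplied by bin number.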

Variant	protein stability index
KVVEAHKIVLCEVSHVFMLLFNVK	2.31
KVVEAHKIVLCAVSHVFMLAFNVK	3.27
KVVEAHKIVLAAVSHVFMLLFNVK	2.85
KVVEAHKIVLCAVSHTFMLLFNVK	3.44
KVVEAHKIVLCAVSHVFMLLFMVK	3.79
KVVEAHKIVLCAHSHVFMLLFNVK	2.36
KVVEAHKIVLRAVSHVFMLLFNVK	1.98
KVVEAHKIVLCAVSHVFMLWFNVK	1.9
KVVEQHKIVLCAVSHVFMLLFNVK	4.3
KVVEAHKIVLCAISHVFMLLFNVK	2.66
KVVEAHKIILCAVSHVFMLLFNVK	2.87
SVVEAHKIVLCAVSHVFMLLFNVK	2.46
KVVEAHKIVLGAVSHVFMLLFNVK	2.26
KVVEAHKIVWCAVSHVFMLLFNVK	1.55
KVVEAHKHVLCAVSHVFMLLFNVK	2.52
KVVEAHKIVLCAVSHVEMLLFNVK	3.12
KVVEAHKIVLCASSHVFMLLFNVK	2.92
KVVEAHKIVLCAYSHVFMLLFNVK	2.62
KVVEAHKIVLCAVSHVFMLLFPVK	2.1
KVVEAHKIVLCAVSHVFMLNFNVK	3.15
KVNEAHKIVLCAVSHVFMLLFNVK	3.87
KVVEAHKEVLCAVSHVFMLLFNVK	1.98
KVVEAHKIVLCAVSHVFMGLFNVK	2.75
KVVEAHKILLCAVSHVFMLLFNVK	3.24

Variant	protein stability index
KVVEAHKIVLCAVSHVFELLFNVK	2.48
KVVEAHKIVLCHVSHVFMLLFNVK	2.83
IVVEAHKIVLCAVSHVFMLLFNVK	2.87
KMVEAHKIVLCAVSHVFMLLFNVK	2.9
KVVEAHKIVLWAVSHVFMLLFNVK	2.66
KVVEAHKIVLCAVSHVKMLLFNVK	2.76
KVVEAHKIVNCAVSHVFMLLFNVK	3.5
KVVEAHRIVLCAVSHVFMLLFNVK	2.65
KQVEAHKIVLCAVSHVFMLLFNVK	2.04
KVVEAHKIVLCAVSHVFMLLFNVN	4.04
KVVEAHVIVLCAVSHVFMLLFNVK	2.31
CVVEAHKIVLCAVSHVFMLLFNVK	3.06
KVVEAHKIVLCAVSHVFMDLFNVK	3.41
KVVEAHKIVLCAVSHVRMLLFNVK	2.23
KVVEAHKIVLCYVSHVFMLLFNVK	2.46
KVVLAHKIVLCAVSHVFMLLFNVK	2.08
KVVECHKIVLCAVSHVFMLLFNVK	2.77
KVVIAHKIVLCAVSHVFMLLFNVK	2.78
KVVEAHKMVLCAVSHVFMLLFNVK	3.3
KTVEAHKIVLCAVSHVFMLLFNVK	2.6
KVVEAHKIHLCAVSHVFMLLFNVK	2.71
KVVEAHKIVLCAVSHVFMLLNNVK	2.8
KVVEAHKIVLCAVSHVFNLLFNVK	3.02
KCVEAHKIVLCAVSHVFMLLFNVK	2.18

Variant	protein stability index
KVKEAHKIVLCAVSHVFMLLFNVK	3.12
KVVEAAKIVLCAVSHVFMLLFNVK	1.84
KVVEAHKIVLKAVSHVFMLLFNVK	1.75
KVVEAHKIVLCAVHHVFMLLFNVK	3.58
KVVEAHKIVLCAVSCVFMLLFNVK	3.87
KVVEAHKIVLCAVSHVCMLLFNVK	3.12
KVVEAHKIVLCAVSHVFMLLFNDK	2.29
KVVEARKIVLCAVSHVFMLLFNVK	3.29
KVVEAHKIVLCAVSHVFMLLFNRK	3.19
KVVEAHKWVLCAVSHVFMLLFNVK	3.31
KFVEAHKIVLCAVSHVFMLLFNVK	2.5
KVVEAHKIVLCAVSHVDMLLFNVK	2.52
KVVEAHKIDLCAVSHVFMLLFNVK	2.67
KVVEAHKIVLCAASHVFMLLFNVK	1.41
KVVEATKIVLCAVSHVFMLLFNVK	1.79
KVVEAHKIVLCAVSHVFMWLFNVK	3.11
KVVEAHKIVLCAVSHVFMLLFYVK	1.85
YVVEAHKIVLCAVSHVFMLLFNVK	2.58
KVVEAHKIVLCTVSHVFMLLFNVK	1.6
KVVRAHKIVLCAVSHVFMLLFNVK	2.69
KVVEAHKIVKCAVSHVFMLLFNVK	2.13
KVVEAHKGVLCAVSHVFMLLFNVK	2.84
KVVEAHTIVLCAVSHVFMLLFNVK	2.64
KVVEAHKIVLCAVSHVFMLLFAVK	2.86

Variant	protein stability index
KVVEAHKIVLCAVSHVFHLLFNVK	2.34
KVVEAHKIVLCAGSHVFMLLFNVK	2.42
GVVEAHKIVLCAVSHVFMLLFNVK	2.31
KVVEAHKIVLCAWSHVFMLLFNVK	1.82
KVVEAHKIVLCAVSHVFMLLFKVK	1.9
KVVEAHKIVLCAVSHVFQLLFNVK	2.43
KVVTAHKIVLCAVSHVFMLLFNVK	2.53
KVVEAHKIVLCAVSHVFMLLFNVY	2.57
KVSEAHKIVLCAVSHVFMLLFNVK	2.39
KVVEAIKIVLCAVSHVFMLLFNVK	1.85
KVVEAHKIVLCNVSHVFMLLFNVK	3.15
KVVEAHKIVLCAVSHVFDLLFNVK	1.92
KVVCAHKIVLCAVSHVFMLLFNVK	2.67
KVVERHKIVLCAVSHVFMLLFNVK	3.59
KVVEAHKIVLEAVSHVFMLLFNVK	1.86
KVVEAHKIVLCAVSHVFMLLFIVK	3.19
KVVEPHKIVLCAVSHVFMLLFNVK	3.11
KVVEAHKIVLCAVSHVFLLLFNVK	3.85
KVVEAHKIVLCAVSHNFMLLFNVK	3.11
KVVEAHKIVLCAVSHVFTLLFNVK	2.23
KVVEAHKIVLCAVSHVFMLLFNVF	2.39
KVVEAHKIVLCAVSIVFMLLFNVK	3.89
KVVEAHKIVLCANSHVFMLLFNVK	2.33
KVVEAKKIVLCAVSHVFMLLFNVK	2.65

Variant	protein stability index
KVVEAHKIVLCAVSHVFMLRFNVK	1.77
KVVEAHKIVYCAVSHVFMLLFNVK	3.18
KVVAAHKIVLCAVSHVFMLLFNVK	2.24
KVGEAHKIVLCAVSHVFMLLFNVK	2.38
KVVEAHKIVLCAVSHVFMLLLNVK	2.76
KVVEAHKIVLCVVSHVFMLLFNVK	2.57
KVVEAHKIVLCAVSHCFMLLFNVK	3.59
KVVEAHKIVLCAVSHVFMELFNVK	2.2
KVVEAHKIVLCAVSNVFMLLFNVK	3.41
KVVEAHKIVLCRVSHVFMLLFNVK	2.33
KVVEAHKIVLCAVSDVFMLLFNVK	3.14
KVVEAHKIVLCAVVHVFMLLFNVK	2.49
KVVEAHKIVLCAVSHVFMLLFNEK	3.25
KVVEAQKIVLCAVSHVFMLLFNVK	1.5
KVVEAHKIVLCAVSHDFMLLFNVK	2.39
KVVEAHKIVLCAVSHVFMLLFNVE	3.19
KVVEAHKIVLCAVSHWFMLLFNVK	3.09
KVVEAHKIVLCAVSHVFMLLFNVA	3.31
KVVEAHKIVLCAVLHVFMLLFNVK	2.6
KVVEAHKIVLCAVSHVFKLLFNVK	1.55
KVVEAHKIVLCAVSHVFMLQFNVK	2.37
KVVEAHKIVLCAVSHVFMLVFNVK	2.42
KVVEAHKIVLCAVAHVFMLLFNVK	2.36
KVVEALKIVLCAVSHVFMLLFNVK	1.75

Variant	protein stability index
KVVEAHKIVLCAPSHVFMLLFNVK	2.59
KIVEAHKIVLCAVSHVFMLLFNVK	3.58
KVVEAHKIVLCAVTHVFMLLFNVK	2.95
KVVEAHKIVLCAVSHHFMLLFNVK	2.98
KVVEAHKCVLCAVSHVFMLLFNVK	2.2
KVVEAHKIVLCAVSQVFMLLFNVK	2.78
KVVEAHKIVLCSVSHVFMLLFNVK	2.78
KVVEAHKIVLQAVSHVFMLLFNVK	2.37
KVVEAHKISLCAVSHVFMLLFNVK	3.31
KVVEAHKIVLCAVSHVFMRLFNVK	3.74
KVVEAHKIMLCAVSHVFMLLFNVK	2.83
KVVEAHAIVLCAVSHVFMLLFNVK	3.36
KVVEAHKIVLCARSHVFMLLFNVK	3.01
KVVFAHKIVLCAVSHVFMLLFNVK	2.23
KVVEAHKIVLCAMSHVFMLLFNVK	4.81
KVVEAHKIVLCAVSHVFMLLFRVK	2.69
KSVEAHKIVLCAVSHVFMLLFNVK	3.24
KVVEAHKIFLCAVSHVFMLLFNVK	2.7
KVVEAHKIVLCAVKHVFMLLFNVK	2.65
KVVEAHKIVLCAVQHVFMLLFNVK	1.94
KVVEAEKIVLCAVSHVFMLLFNVK	2.21
KVVEAHKIVLCAVSHVFMLLFEVK	2.47
RVVEAHKIVLCAVSHVFMLLFNVK	2.68
EVVEAHKIVLCAVSHVFMLLFNVK	3.04

Variant	protein stability index
KAVEAHKIVLCAVSHVFMLLFNVK	2.96
KVVEAHKIVLCAVSHVFYLLFNVK	2.5
KVVEAHKIRLCAVSHVFMLLFNVK	3.25
KVLEAHKIVLCAVSHVFMLLFNVK	2.09
KVVESHKIVLCAVSHVFMLLFNVK	3.05
KNVEAHKIVLCAVSHVFMLLFNVK	2.44
KVVEAHKIVECAVSHVFMLLFNVK	2.73
KVVEAHKIVLCAVSHVFMLLANVK	3.13
KVVENHKIVLCAVSHVFMLLFNVK	2.07
KVVEAHKIVGCAVSHVFMLLFNVK	3.06
KVVEAHKIVLCAVSHVFMLLFHVK	2.8
KVVEAHKICLCAVSHVFMLLFNVK	2.32
KVVEAHKIVLCAVSHVGMLLFNVK	3.57
KVVEAHKIVLCAVSHRFMLLFNVK	2.79
KVVEAHKIVLCAVSHVFMLLFNVV	3.19
KVVEAHKIVLCGVSHVFMLLFNVK	2.92
KVVEAHKIVLCAVDHVFMLLFNVK	2.17
KVVEAHKIVLCAVSHVFMLLFNTK	3.33
KVVEAHKIVLCAVSHVFMLLFNLK	2.62
KVVEAHEIVLCAVSHVFMLLFNVK	2.9
KVVEAHLIVLCAVSHVFMLLFNVK	2.74
KVVEAHKIYLCAVSHVFMLLFNVK	1.64
KVVEAHKIVLCAVSHVFMLLFNQK	1.91
KVVEAVKIVLCAVSHVFMLLFNVK	1.77

Variant	protein stability index
KVVWAHKIVLCAVSHVFMLLFNVK	1.42
KVVEAHKIVLCAVSHVAMLLFNVK	2.4
FVVEAHKIVLCAVSHVFMLLFNVK	4.17
KVVEAHKIKLCAVSHVFMLLFNVK	3.01
KVVEAHKIVDCAVSHVFMLLFNVK	2.5
KYVEAHKIVLCAVSHVFMLLFNVK	1.86
KVDEAHKIVLCAVSHVFMLLFNVK	2.2
KVVEAHKIVLCAVSHVFMFLFNVK	3.32
AVVEAHKIVLCAVSHVFMLLFNVK	3.06
KVVEAHKIVLCACSHVFMLLFNVK	3.14
KVVEAHKIVLCAVSHVFMLLMNVK	3.68
KVVEAHWIVLCAVSHVFMLLFNVK	2.34
KVVEAHKIPLCAVSHVFMLLFNVK	2.36
KVVVAHKIVLCAVSHVFMLLFNVK	2.79
KVVEAHKIVLCAVSHVFMLLFNWK	2.5
KVVEAHKIVLCAVSHVFMLLFDVK	3.27
KVVEAHKIVLCAVSHVFMCLFNVK	2.24
KVVEAHNIVLCAVSHVFMLLFNVK	2.31
KVVEANKIVLCAVSHVFMLLFNVK	3.4
KVVEAHKIVLCAVSHVFGLLFNVK	2.75
